In patent USRE50178 (CELLTECH R AND D, dated 2024):

Target: T1, CD3 antigen (human, UniProt P07766 23-207)
T1 construct: whole, on cells; also called OKT3 antigen; antigen in the T-cell receptor-CD3 complex
Assay: competition with Fl-OKT3 on HPB-ALL cells, flow cytometry

B1: OKT3 gL221 / gH341 (JA178), basic grafted product (antibody, human IgG4, V domains shown)
VH: QVQLVESGGGVVQPGRSLRLSCSSSGYTFTRYTMHWVRQAPGKGLEWVAYINPSRGYTNYNQKFKDRFTISRDNSKNTLFLQMDSLRPEDTGVYFCARYYDDHYCLDYWGQGTTLTVSS
VL: DIQMTQSPSSLSASVGDRVTITCSASSSVSYMNWYQQTPGKAPKLLIYDTSKLASGVPSRFSGSGSGTDYTFTISSLQPEDIATYYCQQWSSNPFTFGQGTKLQITR
notes: Human IgG4 and human kappa constant regions; also called minimally grafted OKT3 antibody
B1: no binding.
